# Data reported in patent publication US20140142023A1, “Pharmaceutical Composition for Treating A Metabolic Syndrome” (SANOFI, priority 2011, published 2014).
# Like-named read-outs stand apart in the source and are kept apart here.
# Tests used:
# [1] = system: ob/ob mice, db/db mice and obese ZDF rats; settings: cited from earlier work
# diabetic rhesus monkeys = settings: 6 weeks; cited from earlier work
# db/db mice [2] = test: Oral glucose tolerance test (OGTT) in db/db mice after 21 days; type: in vivo; settings: after 21 days of treatment, 2 g/kg oral glucose, vs vehicle treated obese control
# Description: (§1) Female db/db mice (BKS.Cg-m+/+Leprdb/J, age of 6 weeks) were treated with vehicle (PBS), 0.05 mg·kg^−1·day^−1 AVE0010, 0.75 mg·kg^−1·day^−1 recombinant human FGF-21 (SEQ ID NO: 2) or a combined dose of FGF-21 (SEQ ID NO: 2) and AVE0010 (0.75+0.05 mg·kg^−1·day^−1) subcutaneously once daily. Mice were fed ad libitum. Before the first treatment, after one week and 4 weeks blood glucose and HbA1c were measured under fed conditions. After 21 days of treatment an oral glucose tolerance test (OGTT) was initiated. Fasted mice were orally challenged with 2 g·kg^−1 glucose solution and blood glucose was measured at indicated time points.
# mouse 3T3-L1 adipocytes = settings: in the presence and absence of insulin; cited from earlier work
# db/db mice [3] = test: Fed blood glucose in db/db mice (age of 6 weeks); type: in vivo; settings: fed conditions, up to 4 weeks, AVE0010 0.05, FGF-21 0.75 mg/kg/day s.c. or combined
# Description: as §1
# [4] = ob/ob and db/db mice and 8 week old ZDF rats, dose dependent (WO03/011213)
# [5] = ob/ob, db/db mice and obese ZDF rats (Kharitonenkov et al. 2005)
molecule,measurement,setting,value
"FGF-21: recombinant human FGF-21 (SEQ ID NO: 2): deletion of amino acids 1-28 of human FGF-21 and additional N-terminal glycine (protein, G linked to fragment of human FGF21 from H29 to S209) GHPIPDSSPLLQFGGQVRQRYLYTDDAQQTEAHLEIREDGTVGGAADQSPESLLQLKALKPGVIQILGVKTSRFLCQRPDGALYGSLHFDPEACSFRELLLEDGYNVYQSEAHGLPLHLPGNKSPHRDPAPRGPARFLPLPGLPPAPPEPPGILAPQPPDVGSSDPLSMVGPSQGRSPSYAS","mitogenicity, hypoglycemia, or weight gain","[1]; any dose tested, diabetic or healthy animals",did not induce
same,food intake or body weight/composition,"[1]; diabetic or lean mice and rats, 2 weeks of administration",did not affect
same,fed and fasting blood glucose,[1]; [4],decrease
same,glucagon levels,[1]; [4],decrease
same,triglycerides,[1]; [4],decrease
same,blood glucose,[1]; [5],significantly lowered
same,fasting insulin levels,[1]; [5],decreased
same,glucose clearance during an oral glucose tolerance test,[1]; [5],improved
same,triglycerides,[1]; [5],significantly lowered
same,HDL-cholesterol,diabetic rhesus monkeys,increased
same,LDL-cholesterol,diabetic rhesus monkeys,significantly lowered
same,body weight,diabetic rhesus monkeys,slightly but significantly decreased
same,fasting plasma glucose,diabetic rhesus monkeys,reduced
same,fructosamine,diabetic rhesus monkeys,reduced
same,glucagone levels,diabetic rhesus monkeys,reduced
same,hypoglycemia,diabetic rhesus monkeys,not observed
same,insulin,diabetic rhesus monkeys,reduced
same,triglyceride,diabetic rhesus monkeys,reduced
same,glucose tolerance (OGTT),db/db mice [2],small improvement
same,glucose uptake,mouse 3T3-L1 adipocytes,stimulate
same,blood glucose,db/db mice [3],inhibition of blood glucose increase
